The text below walks through data of ChEMBL document CHEMBL6074635, “Replacement of the essential nitro group by electrophilic warheads towards nitro-free antimycobacterial benzothiazinones” (Eur J Med Chem, 2024).

As a reminder, the Km is the concentration of substrate that gives half-maximal velocity.

Substrate in series [1]: CC(C)=CCC/C(C)=C/CC/C(C)=C/COP(=O)(O)O[C@@H]1O[C@H](CO)[C@@H](O)[C@H]1O
Kind of series: (§1) Substrate activity at recombinant Mycobacterium tuberculosis DprE1 extracted from Escherichia coli BL21(DE3) assessed as Km incubated for 60 mins by resazurin dye based fluorescence plate reader analysis. For orientation: Alamar Blue is a resazurin reagent that responds to reducing activity.

Substrate in series [2]: CC(C)=CCC/C(C)=C/CC/C(C)=C/CC/C(C)=C/COP(=O)(O)OC1O[C@H](CO)[C@@H](O)[C@H]1O
The description is as §1.

B1: Decaprenylphosphoryl-beta-D-ribose oxidase (Mycobacterium tuberculosis (strain ATCC 25618 / H37Rv)), P9WJF1 (protein)
chain: MLSVGATTTATRLTGWGRTAPSVANVLRTPDAEMIVKAVARVAESGGGRGAIARGLGRSYGDNAQNGGGLVIDMTPLNTIHSIDADTKLVDIDAGVNLDQLMKAALPFGLWVPVLPGTRQVTVGGAIACDIHGKNHHSAGSFGNHVRSMDLLTADGEIRHLTPTGEDAELFWATVGGNGLTGIIMRATIEMTPTSTAYFIADGDVTASLDETIALHSDGSEARYTYSSAWFDAISAPPKLGRAAVSRGRLATVEQLPAKLRSEPLKFDAPQLLTLPDVFPNGLANKYTFGPIGELWYRKSGTYRGKVQNLTQFYHPLDMFGEWNRAYGPAGFLQYQFVIPTEAVDEFKKIIGVIQASGHYSFLNVFKLFGPRNQAPLSFPIPGWNICVDFPIKDGLGKFVSELDRRVLEFGGRLYTAKDSRTTAETFHAMYPRVDEWISVRRKVDPLRVFASDMARRLELL
In the case of B1, the Km in series [1] was 740 µM; in series [2], 33 µM.
